Results from the supplement of paper PMC9732359.
± gives the uncertainty stated by the source.

Test: protein stability index of a GFP-peptide fusion (yeast GPS) (PSI 1-4); higher = more stable; sorted into four equal gates, so the index is relative within each strain
How it was run: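 Tiled yeast protein peptides of 17 residues were each joined downstream of GFP, on plasmids that also express Cherry. The pooled library was maintained in yeast, and mid-log cultures in leucine-free medium were sorted into four equal gates on the GFP/Cherry ratio. Plasmids from every gate were amplified by PCR and sequenced on Illumina, with barcodes linking reads to strains. The protein stability index of a peptide is its gate-number-weighted read frequency summed over the gates.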

Sequence | protein stability index (doa10∆) | protein stability index (pdr5∆) | protein stability index (san1∆) | protein stability index (ubr1∆)
NILKILSSLILKIFQEQ [SRB8] | 2.17 ± 0.047 | 1.99 ± 0.05 | 2.48 ± 0.1 | 2.02 ± 0.037
NINNNINSTKNGKDNNN [MED2] | 3.28 ± 0.068 | 3.26 ± 0.053 | 3.24 ± 0.045 | 3.35 ± 0.041
NIQKKQPAKEKGVTEKD [RRP6] | 3.12 ± 0.1 | 3.17 ± 0.045 | 3.11 ± 0.051 | 3.28 ± 0.047
NISFYKLHVNWNLNATK [SIN4] | 2.43 ± 0.072 | 2.23 ± 0.077 | 2.18 ± 0.16 | 1.48 ± 0.081
NITDNLFQELSKVVDDM [GRR1] | 2.69 ± 0.067 | 2.62 ± 0.083 | 2.28 ± 0.07 | 2.81 ± 0.098
NIVMDSKQNGIEQSITK [SSN8] | 3.08 ± 0.16 | 2.59 ± 0.28 | 2.61 ± 0.18 | 3.15 ± 0.12
NIWLNNKIINWEISNPD [NUT1] | 2.48 ± 0.076 | 2.56 ± 0.057 | 2.71 ± 0.11 | 2.56 ± 0.077
NKKDKKKEEEEQLSEED [RPN1] | 3.55 ± 0.21 | 3.76 ± 0.23 | 3.28 ± 0.13 | 3.36 ± 0.15
NKKRPSSKKVFSSNLSY [YOR098C/NUP1] | 2.48 ± 0.073 | 2.4 ± 0.063 | 2.08 ± 0.1 | 2.56 ± 0.05
NKNIDIGLLNKSKSSLD [RPN2] | 2.37 ± 0.071 | 2.22 ± 0.097 | 1.76 ± 0.096 | 1.92 ± 0.05
NKNNNNRHNLLNDVVSF [SWI1] | 2.99 ± 0.061 | 1.98 ± 0.036 | 1.99 ± 0.037 | 1.9 ± 0.034
NKNQDAFEAELSNIPLL [ARP9] | 3.12 ± 0.098 | 3.23 ± 0.086 | 3.01 ± 0.084 | 3.31 ± 0.076
NKPIKRMLSSILDINVS [SWP82] | 2.52 ± 0.046 | 2.6 ± 0.041 | 2.48 ± 0.053 | 2.31 ± 0.027
NKRLCDEIATIQSKRLR [RPS17A] | 2.75 ± 0.081 | 2.94 ± 0.063 | 3.1 ± 0.046 | 3.22 ± 0.071
NKRLDVIDGKLPFMQNA [YDL088C/ASM4] | 2.84 ± 0.053 | 2.79 ± 0.053 | 2.44 ± 0.052 | 2.19 ± 0.044
NKSLKYVIHGIELLSDL [LIN1] | 2.81 ± 0.093 | 2.94 ± 0.096 | 2.92 ± 0.075 | 2.87 ± 0.067
NKSSVRPTGGANMATVP [MED6] | 2.69 ± 0.063 | 2.79 ± 0.074 | 2.71 ± 0.1 | 2.83 ± 0.057
NLANEQPVLEKPLKKGS [SIR4] | 2.31 ± 0.18 | 2.83 ± 0.093 | 3.08 ± 0.13 | 2.32 ± 0.089
NLDIAKDLIRTDEALFE [MED4] | 3.44 ± 0.22 | 3.29 ± 0.19 | 2.46 ± 0.28 | 3.31 ± 0.24
NLKFLKNKDSLVSNPHE [SRB4] | 2.68 ± 0.06 | 2.51 ± 0.076 | 2.49 ± 0.05 | 2.84 ± 0.049
NLLKNFISSNDAFNMLS [SNF6] | 1.61 ± 0.099 | 2 ± 0.061 | 1.97 ± 0.13 | 1.98 ± 0.043
NLPGNITVVLGVNGYIW [RRP4] | 2.01 ± 0.15 | 2.64 ± 0.093 | 1.67 ± 0.12 | 2.5 ± 0.066
NLPKEGDIVLTRVTRLS [CSL4] | 2.58 ± 0.13 |  | 2.48 ± 0.26 | 
NLQKIDKDSEELDSKTR [MED4] | 2.73 ± 0.091 | 2.98 ± 0.071 | 2.94 ± 0.078 | 3.09 ± 0.053
NLQPASVINNYLREDQM [NUT1] | 2.61 ± 0.075 | 3.08 ± 0.099 | 2.82 ± 0.094 | 2.93 ± 0.14
NLQQQQQQQIQVPLQQT [YGR119C/NUP57] | 2.56 ± 0.13 | 2.76 ± 0.078 | 2.16 ± 0.18 | 3.03 ± 0.11

Sequence | protein stability index (doa10∆) | protein stability index (pdr5∆) | protein stability index (san1∆) | protein stability index (ubr1∆)
NLTEFVQMDKIRKIVRK [AAR2] | 2.77 ± 0.14 | 2.43 ± 0.1 | 1.9 ± 0.13 | 2.34 ± 0.13
NLTSEIEDLRADINSNR [YOR098C/NUP1] | 2.98 ± 0.27 | 3.07 ± 0.12 | 2.83 ± 0.12 | 3.03 ± 0.084
NLTYSSGLFVDVKKRTY [RPB2] | 2.31 ± 0.052 | 2.58 ± 0.051 | 2.4 ± 0.071 | 2 ± 0.031
NLVVSGPPQSLYGLNLT [FAS1] | 2.69 ± 0.071 | 2.35 ± 0.059 | 2.51 ± 0.075 | 2.45 ± 0.043
NLYDGAEHKYMPYTINE [BRR2] | 3.08 ± 0.071 | 3.05 ± 0.071 | 3.13 ± 0.048 | 3.28 ± 0.062
NLYTPKAEMPPEHLRKI [PRP8] | 2.53 ± 0.072 | 2.38 ± 0.062 | 2.78 ± 0.073 | 2.12 ± 0.053
NMVLENVKELWTEKKGK [SMD2] | 2.91 ± 0.11 | 2.67 ± 0.098 | 2.47 ± 0.14 | 3.3 ± 0.065
NNDDNGNNNNNNSGNDN [MED2] | 2.93 ± 0.043 | 2.99 ± 0.04 | 3.01 ± 0.034 | 3.05 ± 0.041
NNGLPECQVIAAEGLCK [YCG1] | 2.53 ± 0.12 | 3.47 ± 0.16 | 1.65 ± 0.15 | 2.72 ± 0.048
NNGVSNLWKNIFLSKEN [COR1] | 2.98 ± 0.082 | 2.9 ± 0.059 | 2.67 ± 0.089 | 2.4 ± 0.058
NNKIITLVKGPKEPRLK [SKI6] | 2.91 ± 0.2 | 2.86 ± 0.16 |  | 3.14 ± 0.081
NNLEKYPFRYKTWLRNQ [RTT102] | 3.37 ± 0.077 | 3.39 ± 0.053 | 3.32 ± 0.061 | 3.38 ± 0.067
NNLHELWALLNFLLPDI [ISW2] | 2.59 ± 0.052 | 2.07 ± 0.049 | 1.89 ± 0.07 | 2.63 ± 0.041
NNLSSMNLDFDIEEGPI [MCD1] | 2.91 ± 0.046 | 3.15 ± 0.042 | 3.21 ± 0.037 | 3.19 ± 0.032
NNNSNNIMSASGGLFGN [YGL172W/NUP49] | 2.97 ± 0.041 | 3.02 ± 0.041 | 3.13 ± 0.051 | 3.2 ± 0.035
NNNVTAVPAATPANTNN [SWI1] | 2.79 ± 0.046 | 3.08 ± 0.046 | 2.76 ± 0.032 | 2.98 ± 0.042
NNPPKPQKPVPLNVLQD [SNF2] | 3.04 ± 0.049 | 3.38 ± 0.06 | 3.21 ± 0.045 | 3.052 ± 0.028
NNRISNANEISANTNNT [SWP82] | 2.14 ± 0.05 | 2.25 ± 0.049 | 2.54 ± 0.066 | 2.66 ± 0.048
NNRRRSRKRGGENVFLK [SIR3] | 3.6 ± 0.11 | 3.23 ± 0.084 | 3.07 ± 0.086 | 3.33 ± 0.048
NNSANNNAHSSDLGTVV [YMR153W/NUP53] | 3.03 ± 0.15 | 2.62 ± 0.1 | 2.7 ± 0.091 | 2.28 ± 0.044
NNSDDEDVDDEELDITP [IRR1] | 3.25 ± 0.099 | 3.46 ± 0.11 | 3.58 ± 0.083 | 3.31 ± 0.077
NNSKSRYPMNLLEFIID [ECM29] | 2.5 ± 0.086 | 2.69 ± 0.052 | 2.64 ± 0.075 | 2.92 ± 0.097
NNSSITLRCSVVEACGN [YCS4] | 1.78 ± 0.064 | 1.23 ± 0.056 | 1.13 ± 0.14 | 1.25 ± 0.041
NNVKQMVMAGSKGSFIN [RPO21] | 1.57 ± 0.091 | 1.78 ± 0.095 |  | 1.94 ± 0.068
NNVSFNAKDIQIPVYDT [FAS1] | 2.36 ± 0.041 | 2.49 ± 0.046 | 2.18 ± 0.048 | 2.64 ± 0.041
